Source: the supplement of paper PMC10567573

B1: HESX1 (parent)
chain: SKYENYFSASERLSLKRELSWYRG
B2: TRIM63 (parent)
chain: QEKKLSFIEALIQQYQEQLDKSTK

Variants of: B1
Test: protein stability index of a GFP-peptide fusion (GPS, HEK-293T) (PSI 1-6); higher = more stable
Conditions: c terminus: a fixed tail appended
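Note: lentivirally expressed fusions sorted by FACS into six bins by GFP to DsRed ratio, PSI derived from sequencing read proportions per bin multiplied by bin number.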

Protein stability index, by site and new letter:
G24: A 1.81 | P 2.46 | K 2.74 | E 2.46 | T 2.07 | D 2.12 | N 1.66 | Y 1.45 | H 2.11 | I 1.81 | L 1.35 | V 2.01
R23: S 2.1 | W 1.83 | A 1.85 | N 1.94 | K 2.14 | P 2.18 | D 2.1 | H 2.3 | Y 1.12 | C 1.53 | Q 2.51 | F 2.16

Variants of: B2
Test: as above
Conditions: c terminus: a fixed tail appended

Protein stability index: each site, then its substitutions
Q1: T 2.23 | W 2.76 | R 2.48 | P 2.39 | I 2.03 | L 1.49 | G 2.31 | Y 2.02 | N 2.49 | S 2.4 | E 2.74 | H 2.28 | M 1.99 | K 2.34 | F 1.91 | C 2.37 | D 2.21 | V 2.39
S6: R 3.16 | W 1.46 | K 2.62 | G 2.8 | V 2.42 | T 2.54 | Q 2.43 | M 2.03 | A 2.16 | E 2.86 | L 2.2 | F 2.32 | I 1.74 | H 2.39 | D 3.02 | P 3.17 | Y 2.09 | N 2.59 | C 2.74
K4: R 2.77 | C 1.9 | L 2 | S 2.83 | V 2.02 | D 3.48 | P 3.07 | Y 2.53 | I 1.96 | H 3.22 | F 2.18 | A 1.87 | W 1.85 | M 1.68 | Q 3.4 | T 2.49 | G 3.03 | E 2.73 | N 3.32
I12: W 2.11 | V 2.6 | F 3.18 | R 2.33 | T 4.45 | A 3.8 | N 4.47 | G 3.98 | K 3.7 | D 5.25 | C 3.87 | Y 2.37 | L 3.51 | P 5.67 | E 4.39 | M 2.95 | S 4.28
F7: L 3.06 | E 4.38 | I 2.58 | S 4.28 | N 4.97 | T 3.98 | P 4.36 | Q 4.05 | Y 2.48 | D 4.53 | C 3.23 | W 4.19 | M 3.33 | R 3.92 | G 4.64 | A 4.05 | H 4.2 | V 3.45
A10: Q 2.89 | Y 2.06 | S 2.89 | L 2.37 | G 3.33 | C 2.14 | P 3.98 | R 2.53 | E 3.42 | F 2.28 | N 2.73 | V 2.38 | D 3.47 | T 2.72 | K 2.39 | I 2.54 | W 1.63 | H 2.75 | M 1.96
I8: A 3.83 | Q 4.32 | T 2.64 | G 5.05 | Y 3.63 | W 3.56 | K 4.17 | L 2.14 | N 5.18 | V 1.28 | R 4.08 | C 4.38 | D 4.44 | E 4.76 | M 3.96 | P 4.89 | H 4.92 | F 2.78
E9: V 1.7 | I 2.06 | K 3.62 | H 2.33 | A 1.93 | W 1.6 | N 2.64 | M 2.22 | C 2.05 | R 2.82 | L 1.39 | F 1.8 | Q 2.76 | P 3.96 | Y 1.57 | S 2.68 | T 1.79
Y15: K 3.9 | H 3.38 | P 4.56 | L 2.08 | N 3.75 | D 4.75 | A 2.61 | F 1.86 | Q 3.87 | G 4.41 | W 1 | T 2.98 | R 4.63 | I 2.1 | S 3.52 | C 2.1 | V 2.09
K3: I 2.01 | W 1.57 | H 2.32 | A 2.67 | R 2.84 | S 3.6 | F 2.43 | T 3.04 | E 3.04 | Y 2.88 | Q 2.85 | D 3.27 | G 3.03 | L 2.15 | C 3.24 | V 2.32 | P 2.67 | N 3.11
L11: K 4.45 | D 5.13 | A 3.71 | G 4.46 | I 2.02 | E 4.73 | R 4.58 | M 3.09 | H 4.63 | V 2.65 | W 3.43 | Y 3.31 | F 2.79 | Q 4.81 | N 4.78 | C 4.29 | S 5.13 | P 5.29 | T 3.96
E2: R 2.93 | T 2 | G 2.93 | I 1.92 | L 2.73 | Q 2.25 | K 1.81 | W 2 | A 1.63 | C 1.52 | H 2.58 | D 2.74 | P 2.93 | N 1.9 | F 2.44 | S 1.87 | Y 2.75 | V 1.74 | M 1.92
Q18: C 2.34 | D 3.54 | A 2.37 | E 2.51
Q14: D 3.17 | M 2.44 | S 3.5 | H 2.03 | A 2.43 | C 2.8 | L 2.89 | G 3.13 | E 2.91 | W 1.07 | R 2.2 | V 2.49 | I 2.98 | T 3.07 | Y 1.95 | N 3.03 | P 3.86
L5: V 2.57 | K 3.11 | C 2.69 | N 4.19 | I 2.76 | S 3.95 | W 2.12 | Y 2.08 | D 3.93 | H 2.9 | R 3.05 | F 2.91 | P 3.58 | M 2.38 | T 2.69 | Q 3.34 | A 4.08 | G 3.91 | E 3.51
Q16: L 1.49 | M 1.48 | N 3.05 | A 2.5 | W 1.74 | G 3.81 | T 2.62 | K 4.03 | R 2.38 | E 3.09 | V 2.7 | H 2.57 | F 2.07 | S 2.41 | Y 2.32 | C 2 | I 1.87
Q13: N 2.79 | W 1.32 | A 2.46 | M 2.02 | P 4.35 | G 2.53 | I 2.02 | R 2.7 | K 2.64 | E 3.54 | T 2.74 | D 3.54 | V 1.98 | F 1.84 | L 2.1 | Y 2.35 | C 2.67
E17: L 1.8 | Q 2.65 | D 3 | V 1.75 | C 2.47 | M 2.08 | S 2.26 | F 2.25 | N 1.81 | A 2 | W 1.3 | I 2.14 | H 2.11 | K 2.16 | Y 2.84 | G 2.21 | T 2.68 | R 1.45
